Where no end group is shown, it is not given here.
Columns and labels:
G3BP1-GFP protein = target: T1, G3BP1-GFP protein (Mus musculus, UniProt P97855); assay: G3BP1-GFP phase separated droplet dissolution, confocal laser microscope; type: biochemical; details: 60 uM polypeptide, 20 uM G3BP1-GFP
T1 construct: Genes of full-length mouse G3BP1, G3BP1-eGFP; thrombin protease cleavage site (C); His6 (C); made in house; host or cells: Escherichia coli rosetta (DE3)
Method: The prokaryotic expressed and purified G3BP1-GFP protein (pH7.5, 20 uM G3BP1-GFP) was induced to form phase separated droplets in vitro. Polypeptides Champ-E (RJK001), Champ-D (RJK002), Champ-K (RJK012) and Champ-Q (RJK005, […], SEQ ID NO: 34) (each of 60 uM) were added dropwise to the G3BP1-GFP droplets. The observation was performed continuously through a confocal laser microscope.
For G3BP1(FL)-eGFP, purified G3BP1(FL)-eGFP, Champ-E and its variants were changed were diluted to droplet buffer (50 mM Tris, pH 7.5, 150 mM NaCl) using SpinDesalt Column (smart). G3BP1(FL)-eGFP proteins were diluted to indicated concentrations and supplemented with PEG8000 with 1.25% final concentration for 10 min to induce phase separation as reported.

G3BP1 = target: T2, G3BP1 (Mus musculus, UniProt P97855); assay: G3BP1 turbidity assay (OD395 nm); type: biochemical; details: G3BP1 30 μM, ratio range 0.75 to 25, room temperature, 10 minutes
T2 construct: Genes of full-length mouse G3BP1, G3BP1-eGFP; thrombin protease cleavage site (C); His6 (C); made in house; host or cells: Escherichia coli rosetta (DE3)
Method: The turbidity of G3BP1 (30 μM) in the presence of various concentrations of Champ-E, Champ-D, Champ-K, or Champ-Q was measured at a wavelength of 395 nm. Briefly, G3BP1 protein ([…]) and polypeptides Champ-E (RJK001), Champ-D (RJK002), Champ-K (RJK012) and Champ-Q (RJK005) were mixed well in a ratio range of 0.75 to 25 at room temperature for 10 minutes prior to turbidity assays. Absorbance at 395 nm (OD395 nm) was monitored at room temperature using Nanodrop ONE (Thermo Fisher Scientific, Inc.). […] The turbidity level reflects the degree of phase separation.
Briefly, the G3BP1 protein and the above-mentioned peptides were mixed at room temperature for 10 minutes prior to turbidity assays. 30 μM G3BP1 and peptide were mixed well in a ratio range of 0.75 to 25 before test. Absorbance at 395 nm (OD395 nm) was monitored at room temperature using Nanodrop ONE (Thermo Fisher Scientific, Inc.).
We followed the Turbidity Assays experiment as previously reported. Briefly, G3BP1 turbidity analysis were at room temperature and γD-crystallin protein was at 4° C. Proteins and Champ-E(RJK001), Champ-K, Champ-D or mutants are mixed at room temperature for 10 minutes prior to turbidity assays. 20 μM G3BP1 and 50 mg/ml(2.5 mM) γD-crystallin and peptide were mixed well in a ratio range of 0.75 to 25 before test. Absorbance at 395 nm (OD395 nm) was monitored at room temperature using Nanodrop ONE (Thermo Fisher Scientific, Inc.).

[1] = system: γD (W42D) aggregates in the SH-SY5Y cell; assay: γD (W42D) aggregates in SH-SY5Y cells, live imaging and CellProfiler analysis; type: cell-based; details: added every 4 hours for a total of 24 hours
Method: Cells were grown in a 12-well plate (1×10^5 cells per well) for 24 hours and transfected with γD (W42D) plasmid using EZtrans transfection reagent. 24 hours after transfection, Champ peptides RJK001 (final concentration of 20 uM) and RJK0012 (final concentration of 10 uM and 20 uM) were added into SH-SY5Y cell culture medium every 4 hours for a total of 24 hours. The effect of RJK001 and RJK012 polypeptide on the γD (W42D) aggregates in the SH-SY5Y cell mode were analyzed using a custom CellProfiler software. Briefly, cell bodies were then segmented and identified by the GFP fluorescence channel images and tracing outward to the limits of the cytoplasmic (using a diameter cutoff of 100-300 pixels). The cell bodies were used as masks to eliminate imaging artifacts outside of cell boundaries, such as background fluorescence or dead cells. After masking, punctate structures were enhanced by image processing for speckle-like features that were 10 pixels in diameter for SH-SY5Y cells and these punctate structures were then annotated as features such as γD (W42D) puncta. Finally, the total image area which was enclosed in each of the identified features (number of cell and punctate) was calculated and output to spreadsheets. At least 200 cells per sample were analyzed. […]
Granules screen and assay images were segmented and image features quantified using a custom CellProfiler and ImageJ software. […] The effect of RJK001 and RJK012 polypeptide on the γD ([…]) aggregates in the SH-SY5Y cell mode were analyzed using a custom CellProfiler software. Briefly, cell bodies were then segmented and identified by the GFP fluorescence channel images and tracing outward to the limits of the cytoplasmic (using a diameter cutoff of 100-300 pixels). The cell bodies were used as masks to eliminate imaging artifacts outside of cell boundaries, such as background fluorescence or dead cells. […] Finally, the total image area which was enclosed in each of the identified features (number of cell and punctate) was calculated and output to spreadsheets. At least 200 cells per sample were analyzed.

[2] = Half-life of cell-penetrating peptide fused Champ peptides in eukaryotic cells (western blot); type: in vitro ADME; details: SH-SY5Y cells harvested at 1 h, 4 h, 8 h and 24 h, western blot
Method: (§1) As described in Example 1, the polypeptide RJK001 was fused at its C-terminal with a cell-penetrating peptide ([…]) and the polypeptide RJK012 was fused at its N-terminal with a cell-penetrating peptide ([…]).
(§2) C-terminal fusion cell-penetrating peptide RJK001 and N-terminal fusion cell-penetrating peptide RJK012 were purified in vitro and added into SH-SY5Y cell. Cells were harvested at 1 h, 4 h, 8 h and 24 h respectively and were washed with PBS. Total proteins were extracted from SH-SY5Y cells with lysis buffer. Equal amounts of protein (20 μg) were separated by SDS-PAGE (15% separating gel). For data analysis, ImageJ was used to detect the Integrated density of each protein bands, and the ratio and half-life of Champ peptides were calculated by comparing with the positive control. […]
(§3) Cells were harvested at 1 h, 4 h, 8 h and 24 h respectively and were washed with PBS. […] For data analysis, quantification of the western blot bands was achieved using the software GELPRO (Media Cybernetics). The ratio and half-life of Champ peptides were calculated by comparing with the positive control. The presented quantitative data were calculated from three independent experiments.

[3] = target: T3, wild-type human full-length γD-crystallin (human, UniProt P07320 1-174); assay: 1H-15N HSQC NMR chemical shift differences, 15N γD-crystallin with unlabeled RJK001 at 1:2
T3 construct: It was uniformly 15N-labelled for the HSQC experiment and unlabelled for the turbidity assay; also called full-length wildtype γD-crystallin protein; 15N γD-crystallin
T3 sequence (looked up): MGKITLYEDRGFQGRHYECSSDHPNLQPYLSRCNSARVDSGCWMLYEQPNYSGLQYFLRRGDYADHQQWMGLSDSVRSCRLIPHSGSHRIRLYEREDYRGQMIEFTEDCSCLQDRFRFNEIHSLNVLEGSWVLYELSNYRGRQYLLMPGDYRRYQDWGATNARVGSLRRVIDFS
Method: Using final 300 uM human γD-crystallin at 25° C., the two-dimensional [¹H-¹⁵N] heteronuclear single quantum coherence (HSQC) spectra were recorded to determine the domain interactions at the residue-specific level.

SH-SY5Y cells = assay: Half-life of cell-penetrating peptide fused Champ peptides in eukaryotic cells (western blot); type: in vitro ADME
Method: as §1, §2, §3

## TDPQDDSDDDVDDPDDRQQTPDVVPDDSGTFYDQTVSNDLD [RJK002, Asp variant of Champ-E]
G3BP1-GFP protein; pH7.5, 40s after addition
  dissolution of G3BP1-GFP phase separated droplets: partially dissolved the phase separated droplets
G3BP1-GFP protein; pH7.5, 120s after addition
  dissolution of G3BP1-GFP phase separated droplets: dissolved more phase separated droplets
G3BP1
  turbidity of G3BP1 (OD395 nm): reduced the turbidity in a concentration dependent manner

## TQPQQQSQQQVQQPQQRQQTPQVVPDDSGTFYDQTVSNDLQ [RJK005]
G3BP1-GFP protein; pH7.5, 120s after addition
  dissolution of G3BP1-GFP phase separated droplets: did not dissolve the phase separated droplets
G3BP1
  turbidity of G3BP1 (OD395 nm): much less effect on the reduction of the turbidity

## TKPQKKSKKKVKKPKKRQQTPKVVPDDSGTFYDQTVSNDLK [RJK012, Lys variant of Champ-E]
[1]; 10 uM
  number of γD (W42D) aggregates in the SH-SY5Y cell: reduced the number of γD (W42D) aggregates in the SH-SY5Y cell in a time-dependent manner until 6 hours
[1]; 20 uM
  number of γD (W42D) aggregates in the SH-SY5Y cell: reduced the number of γD (W42D) aggregates in the SH-SY5Y cell in a time-dependent manner until 12 hours
G3BP1-GFP protein; pH7.5, 40s after addition
  dissolution of G3BP1-GFP phase separated droplets: significantly dissolved the phase separated droplets
G3BP1
  turbidity of G3BP1 (OD395 nm): reduced the turbidity in a concentration dependent manner

## TEPQEESEEEVEEPEERQQTPEVVPDDSGTFYDQTVSNDLEGGRKKRRQRRRHHHHHHHH
[2]
  half-life: ~8 h

B1: Champ-E (RJK001) (peptide)
peptide: TEPQEESEEEVEEPEERQQTPEVVPDDSGTFYDQTVSNDLE
notes: The peptide was unlabeled in the NMR experiment; also called short peptide RJK001
[3]
  binding result: binds

B2: RQIKIWFQNRRMKWKKKTKPQKKSKKKVKKPKKRQQTPKVVPDDSGTFYDQTVSNDLKSGRPVLHHHHHH (peptide)
chain: RQIKIWFQNRRMKWKKKTKPQKKSKKKVKKPKKRQQTPKVVPDDSGTFYDQTVSNDLKSGRPVLHHHHHH
SH-SY5Y cells
  half-life in eukaryotic cells: about 8 hours
G3BP1
  turbidity of G3BP1 (OD395 nm): reduce the turbidity in a concentration dependent manner
